From US20260218282A1

Biological target: pMHC monomer containing HLA-A*02:01 restricted NY-ESO-1 C9V peptide (human)
Experiment: capture of TCR-transduced PBMCs on pMHC-labeled nanovials (20 µg/ml pMHC), flow cytometry

fraction of bound live cells with NGFR expression: 93.9%
Substance: 1G4 TCR
